Primed or numbered codes have the meaning given here. Where no end group is shown, it is not given here. [ ]: non-standard residue; d: D form. Fc(3) = Fc: non-antigen-binding fragment of an antibody from proteolytic digestion of a whole antibody (vehicle); Fc(4) = non-antigen-binding fragment of an antibody (from proteolytic digestion of a whole antibody); mPEG 5K = methoxy-PEG 5 kDa coupled via the N-terminal cysteine; Fc = immunoglobulin Fc domain fused to the peptide (peptibody); Fc″ = Fc domain of the peptibody fusion
T1: human Ang-2 (human, UniProt O15123)
T1 chain: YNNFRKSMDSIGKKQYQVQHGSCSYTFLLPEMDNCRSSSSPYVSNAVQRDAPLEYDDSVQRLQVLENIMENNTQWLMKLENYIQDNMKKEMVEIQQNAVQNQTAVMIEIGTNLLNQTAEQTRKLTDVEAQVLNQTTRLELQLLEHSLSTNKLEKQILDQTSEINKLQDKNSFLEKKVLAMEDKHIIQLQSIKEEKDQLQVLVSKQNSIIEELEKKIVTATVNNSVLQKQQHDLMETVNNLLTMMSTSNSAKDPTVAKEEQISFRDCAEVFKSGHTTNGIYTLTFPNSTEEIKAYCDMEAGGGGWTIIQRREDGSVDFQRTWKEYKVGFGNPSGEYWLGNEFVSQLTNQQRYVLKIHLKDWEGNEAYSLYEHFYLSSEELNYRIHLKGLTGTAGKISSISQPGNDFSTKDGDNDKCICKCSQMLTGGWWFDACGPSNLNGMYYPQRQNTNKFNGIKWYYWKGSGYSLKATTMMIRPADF

T2: rat Ang-2 (rAng-2) (rat, UniProt O35462)
T2 chain: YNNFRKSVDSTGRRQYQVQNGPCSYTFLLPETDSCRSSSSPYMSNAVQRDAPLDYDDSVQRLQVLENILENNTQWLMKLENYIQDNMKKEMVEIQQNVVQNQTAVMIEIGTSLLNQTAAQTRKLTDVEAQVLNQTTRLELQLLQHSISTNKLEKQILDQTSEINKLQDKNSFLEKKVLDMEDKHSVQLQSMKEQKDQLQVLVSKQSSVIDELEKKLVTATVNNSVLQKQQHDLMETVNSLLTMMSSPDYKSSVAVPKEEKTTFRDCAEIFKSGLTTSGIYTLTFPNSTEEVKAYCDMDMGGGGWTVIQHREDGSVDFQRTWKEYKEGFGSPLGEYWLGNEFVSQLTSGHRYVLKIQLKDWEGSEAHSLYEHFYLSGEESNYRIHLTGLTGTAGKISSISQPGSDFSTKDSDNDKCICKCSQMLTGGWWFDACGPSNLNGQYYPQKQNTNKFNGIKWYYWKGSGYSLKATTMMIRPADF

T3: cAng-2 (UniProt O15123)
T3 chain: T1 chain

T4: mouse Ang-1 (mouse, UniProt O08538)
T4 chain: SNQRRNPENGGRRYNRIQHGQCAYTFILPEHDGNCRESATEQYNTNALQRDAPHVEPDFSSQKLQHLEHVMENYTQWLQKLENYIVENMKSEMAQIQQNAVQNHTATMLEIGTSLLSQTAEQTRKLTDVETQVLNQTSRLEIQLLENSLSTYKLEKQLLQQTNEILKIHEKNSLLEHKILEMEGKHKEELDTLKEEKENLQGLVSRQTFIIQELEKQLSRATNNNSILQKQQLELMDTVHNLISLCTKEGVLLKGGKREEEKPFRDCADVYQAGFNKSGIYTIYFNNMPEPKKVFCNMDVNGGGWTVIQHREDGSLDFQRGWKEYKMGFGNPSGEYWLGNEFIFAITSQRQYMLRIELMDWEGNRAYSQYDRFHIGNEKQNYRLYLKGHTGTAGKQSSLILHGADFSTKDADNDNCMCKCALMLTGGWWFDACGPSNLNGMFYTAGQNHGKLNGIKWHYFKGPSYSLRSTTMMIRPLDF

B1: L1 (N) (peptide)
chain: MGAQKFNPLDELEETLYEQFTFQQLEGGGGG[Fc(3)]
B2: TN12-9 (N) (peptide)
chain: MGAQFDYCEGVEDPFTFGCDNHLEGGGGGX
modifications: not fully specified (C-terminus, bridges); printed as MGAQ-FDYCEGVEDPFTFGCDNHLE-GGGGG-Fc; cysteine pairing not given here
B3: Con4-44 (C) (peptide)
chain: M[Fc(4)]GGGGGAQPIRQEECDWDPWTCEHMWEVLE
modifications: not fully specified; cysteine pairing not given here
B4: L1-7 (N) (peptide)
chain: MGAQTNFMPMDDLEQRLYEQFILQQGLEGGGGG-Fc
B5: L1-21 (N) (peptide)
chain: MGAQHTFQPLDELEETLYYQWLYDQLLEGGGGG-{Fc″}
B6: Con4 (C) (peptide)
chain: M[Fc]GGGGGAQQEECEWDPWTCEHMLE
modifications: not fully specified (bridges); printed as M-Fc-GGGGGAQQEECEWDPWTCEHMLE; cysteine pairing not given here; also: Fc fusion domain at position 2
B7: L1-10 (N) (peptide)
chain: MGAQQKFQPLDELEQTLYEQFMLQQALEGGGGG[Fc(3)]
B8: mouse Ang-2 (protein)
chain: YSNFRKSVDSTGRRQYQVQNGPCSYTFLLPETDSCRSSSSPYMSNAVQRDAPLDYDDSVQRLQVLENILENNTQWLMKLENYIQDNMKKEMVEIQQNVVQNQTAVMIEIGTSLLNQTAAQTRKLTDVEAQVLNQTTRLELQLLQHSISTNKLEKQILDQTSEINKLQNKNSFLEQKVLDMEGKHSEQLQSMKEQKDELQVLVSKQSSVIDELEKKLVTATVNNSLLQKQQHDLMETVNSLLTMMSSPNSKSSVAIRKEEQTTFRDCAEIFKSGLTTSGIYTLTFPNSTEEIKAYCDMDVGGGGWTVIQHREDGSVDFQRTWKEYKEGFGSPLGEYWLGNEFVSQLTGQHRYVLKIQLKDWEGNEAHSLYDHFYLAGEESNYRIHLTGLTGTAGKISSISQPGSDFSTKDSDNDKCICKCSQMLSGGWWFDACGPSNLNGQYYPQKQNTNKFNGIKWYYWKGSGYSLKATTMMIRPADF
B9: mPEG5K-(L1-7 Peptide) (peptide)
chain: C(mPEG 5K)GGGGGAQTNFMPMDDLEQRLYEQFILQQGLE
B10: PEG3.4K(L1-7 Peptide)2 (peptide)
chain: CGGGGGAQTNFMPMDDLEQRLYEQFILQQGLE
modifications: not fully specified (residue 1); printed as C-GGGGG-AQ-TNFMPMDDLEQRLYEQFILQQG-LE; also: dimer linked by PEG 3.4K via N-terminal Cys
B11: human Ang-1 (protein)
chain: SNQRRSPENSGRRYNRIQHGQCAYTFILPEHDGNCRESTTDQYNTNALQRDAPHVEPDFSSQKLQHLEHVMENYTQWLQKLENYIVENMKSEMAQIQQNAVQNHTATMLEIGTSLLSQTAEQTRKLTDVETQVLNQTSRLEIQLLENSLSTYKLEKQLLQQTNEILKIHEKNSLLEHKILEMEGKHKEELDTLKEEKENLQGLVTRQTYIIQELEKQLNRATTNNSVLQKQQLELMDTVHNLVNLCTKEGVLLKGGKREEEKPFRDCADVYQAGFNKSGIYTIYINNMPEPKKVFCNMDVNGGGWTVIQHREDGSLDFQRGWKEYKMGFGNPSGEYWLGNEFIFAITSQRQYMLRIELMDWEGNRAYSQYDRFHIGNEKQNYRLYLKGHTGTAGKQSSLILHGADFSTKDADNDNCMCKCALMLTGGWWFDACGPSNLNGMFYTAGQNHGKLNGIKWHYFKGPSYSLRSTTMMIRPLDF

Target: B11
Assay: competition ELISA vs Tie-2

| Binder | IC50 |
| --- | --- |
| B1 | > 1000 nM |
| B2 | > 1000 nM |

Target: B11
Assay: competition ELISA vs Tie-2
Remark: another data set of the same source

| Binder | IC50 |
| --- | --- |
| B3 | 43 nM |
| B4 | > 1000 nM |
| B5 | > 1000 nM |
| B6 | 200 nM |
| B7 | > 1000 nM |

target: Negative Control Peptibody 4883; assay: ELISA

| Binder | binding result |
| --- | --- |
| B8 | no binding |

Target: T1, human Ang-2
Assay: competition ELISA vs Tie-2

| Binder | IC50 |
| --- | --- |
| B9 | 11.7 nM |
| B10 | 0.058 nM |

Target: T1, human Ang-2
Assay: competition ELISA vs Tie-2
Remark: another data set of the same source

| Binder | IC50 |
| --- | --- |
| B4 | 0.03 nM |
| B5 | 0.17 nM |
| B7 | 0.05 nM |

Target: T1, human Ang-2
Assay: SPR

| Binder | Kd |
| --- | --- |
| B1 | 3.1 nM |
| B2 | 8.2 nM |

Target: T1, human Ang-2
Assay: SPR
Remark: another data set of the same source

| Binder | Kd |
| --- | --- |
| B3 | 0.21 nM |
| B4 | 0.24 nM |
| B5 | 0.24 nM |
| B6 | 0.38 nM |
| B7 | 0.77 nM |

Target: B8
Assay: SPR

| Binder | Kd |
| --- | --- |
| B1 | 0.42 nM |
| B2 | 0.32 nM |

target: Negative Control Peptibody 4883; assay: ELISA; remark: another data set of the same source

| Binder | binding result |
| --- | --- |
| B11 | no binding |

Target: B8
Assay: competition ELISA vs Tie-2

| Binder | IC50 |
| --- | --- |
| B3 | 0.16 nM |
| B4 | 0.063 nM |
| B5 | 0.249 nM |
| B6 | 0.289 nM |
| B7 | 0.06 nM |

Target: T2, rat Ang-2 (rAng-2)
Assay: competition ELISA vs Tie-2

| Binder | IC50 |
| --- | --- |
| B3 | 0.22 nM |
| B4 | 0.035 nM |
| B5 | 0.204 nM |
| B6 | 0.236 nM |
| B7 | 0.06 nM |

Target: T3, cAng-2
Assay: competition ELISA vs Tie-2

| Binder | IC50 |
| --- | --- |
| B4 | 0.108 nM |
| B5 | 0.608 nM |
| B6 | 0.54 nM |

Target: T1, human Ang-2
Assay: competition ELISA vs Tie-2
Remark: another data set of the same source

| Binder | IC50 |
| --- | --- |
| B3 | 0.08 nM |
| B4 | 0.046 nM |
| B5 | 0.179 nM |
| B6 | 0.197 nM |
| B7 | 0.06 nM |

Target: B8
Assay: competition ELISA vs Tie-2
Remark: another data set of the same source

| Binder | IC50 |
| --- | --- |
| B1 | 11 nM |
| B6 | 0.3 nM |
| B2 | 7.7 nM |

Target: T1, human Ang-2
Assay: competition ELISA vs Tie-2
Remark: another data set of the same source

| Binder | IC50 |
| --- | --- |
| B3 | 0.09 nM |

Target: T4, mouse Ang-1
Assay: competition ELISA vs Tie-2

| Binder | IC50 |
| --- | --- |
| B4 | > 1000 nM |
| B5 | > 1000 nM |
| B6 | 300 nM |

Target: T1, human Ang-2
Assay: competition ELISA vs Tie-2
Remark: another data set of the same source

| Binder | IC50 |
| --- | --- |
| B1 | 6 nM |
| B6 | 0.2 nM |
| B2 | 21 nM |

— patent US7205275 (dated 2007)
